This note sets out measurements from US9011913B2, “Use of functionalized magnetic nanoparticles in cancer detection and treatment” (The Regents of the University of California, priority 2008, dated 2015).

No end group written: not given here.

The nature of data set [1]: Tissue half-life of the particles. Particulars: in vivo.
The nature of data set [2]: Shelf-life of the compounds. The format is physicochemical.
The next data set deals with adrenal gland. The data set can be described thus: MRI of adrenal glands after ACTH-MNP injection. The format is in vivo, mouse. As to conditions: tail vein. As to the method: ACTH-MNP was injected through tail vein (approximately 1 μg iron-oxide per gram of body weight) in a 1-day old mouse and a 60-day old mouse. MR images (T2, TE 6000, TR=[…], 0.4-1 mm slice thickness, 3 cm FOV, Brucker Biospin 7T) were obtain before, and up to 3 hours after injection with these contrast agents.

The next data set deals with AtT-20 cells. The data set can be described thus: Functional studies of tumor cells: c-AMP production. The format is cell-based, Murine. As to the method:
Functional studies of tumor cells. Murine pituitary tumor cell lines (AtT-20 cells; American Type Culture Collection designation CCL-89™) were incubated with CRF and CRF-MNP preparations at 6 different molar concentrations of CRF and CRF-equivalent concentration of CRF-MNP (10^−12-10^−7 molar, factor of 10 increase per step). Production of c-AMP (nM) was measured after equivalent times of incubation with all the preparations.

The mark [3] stands for this setting: equivalent CRF concentrations 10^−12-10^−7 molar.

As for “ACTH-MNP: Adrenocorticotropin Hormone (ACTH)-conjugated dextran-coated and epoxy surface-modified magnetonanoparticles, 10-15 nm diameter (SYSMEHFRWGKPVGKKRRPVKVYPNGAEDESAEAFPLEF; also: conjugated to dextran-coated, epoxy surface-modified magnetic nanoparticles; UniProt P01189 138-176, looked up)”, the tissue half-life result in data set [1] was “order of hours to days”. Also, the shelf-life in data set [2] is 2-3 months. Further, the “uptake in the adrenals” value in the data set on adrenal gland (1-day old mouse, 5 μl) is reported as “increased uptake (decreased signal intensity)”; with adrenal gland (60 day old mouse, 100 μl), “increased uptake (decreased signal intensity)”.
“CRF-MNP: CRF-conjugated dextran-coated and maleimide surface-modified magnetonanoparticles, 10-15 nm diameter”: the cytotoxicity entry in the data set on AtT-20 cells (AtT-20 cells) is given as “not cytotoxic”. Further, in the data set with AtT-20 cells (cellular level), the “functional properties of CRF while conjugated to the nanoparticles” value is “retains its functional properties”. Moreover, in the data set on AtT-20 cells (setting [3]), the “decrease in potency compared to CRF (c-AMP production)” value is recorded as “approximately 10 fold” and the “increase in efficacy compared to CRF (c-AMP production)” value is reported as “two-fold increase”. Also, the tissue half-life result in data set [1] is given as “order of hours to days”. In data set [2], the shelf-life is 6-12 months.
